Experimental findings from the DeepSol protein solubility set are described below.

The nature of this data set: soluble on expression in E. coli; label from the status in PepcDB or PDB records.
With “AIAANQWERFVWLALDAPDTIVERAPLVIQVAWLEDTQLRLWEPAAREPLKRGDDAALRTYLRDAAECPWDPATDPSLVREFLLSRAVDCAFRDELAEHAGCVVDEELDTDFIAETMALSEELVRADDKKLPLETQDLDPASFDLLRAELALPAASAREVLRAGAHWAITRWPPREQWLPPCSRADAPATTALAATGGVPSEAQATPEPMCTETTVSDATCALPSGVYAQLQRIGRQLHNEELLYTQHLLNAALERAQTMTANPRTEARLGRVGH”, the “soluble on expression in E. coli” value is recorded as “soluble”.

Turning to “MVPELKQISRVEAMRLGPGWSHSCHAMLYAANPGQLFGRIPMRFSVLMQMRFDGLLGFPGGFVDRRFWSLEDGLNRVLGLGLGCLRLTEADYLSSHLTEGPHRVVAHLYARQLTLEQLHAVEISAVHSRDHGLEVLGLVRVPLYTQKDRVGGFPNFLSNAFVSTAKCQLLFALKVLNMMPEEKLVEALAAATEKQKKALEKLLPASSAHHHHHH”, the “soluble on expression in E. coli” value was “soluble”.

For the sequence “ANSMLKGKVALVTGASRGIGRAIAKRLANDGALVAIHYGNRKEEAEETVYEIQSNGGSAFSIGANLESLHGVEALYSSLDNELQNRTGSTKFDILINNAGIGPGAFIEETTEQFFDRMVSVNAKAPFFIIQQALSRLRDNSRIINISSAATRISLPDFIAYSMTKGAINTMTFTLAKQLGARGITVNAILPGFVKTDMNAELLSDPMMKQYATTISAFNRLGEVEDIADTAAFLASPDSRWVTGQLIDVSGGSCL”, the “soluble on expression in E. coli” value is recorded as “soluble”.

Regarding “MGSDKIHHHHHHMKDEILIRYINKHCTATEEKEILEWLKEKDNRQRLFELEQIWGLKAEMRFSDKGRMDEAYRQLSRQLGLSGQIEKREKPIQRFTVREWWKYAAVLVAVCLFATNLFYITKEEPEAYNTVVVPKGQRVSLLLSDGTTVWLNAESRFSYPAKFSEKYRTVTLEGEGYFEVAHNPKCPFTVKLPMLNIRVLGTKFNAKAYLDEPSWITLKEGSVEVSTLDDRSKERMSPNDQVYYTVSDGLVLIRNSAQANVDSWTTGDLRFDNKTLKEMAKVIERRYDVKIRIMDSSLVEEYFTCHFRKDLTIAQAMELLKETRRVDYRIEKKTVYLYKK”, the “soluble on expression in E. coli” value was “not soluble”.

Consider “MGSDKIHHHHHHMISSITSSIPKDVLYAAAEWYATLYDEDCSENDRQTWQRWLHEDETHRLAWQQVEQIHARFHAVDSQLASSVLSRRGEERRRMLKLLVIASVTGGVGFSLPWDSYAADYRTGTGETRELSIETGMTVWLNTDSALNQQGNPALSQPLTFQLIKGELMLDNQTAHAARLTTPHGDLAAAAYSCQLALRYTSAHSVLSVFSGEVLLQTAVPAAQRVTAGQQVIFTRDRCSEPAPVENFRQSWRKGLLVADSMPLGQLINEISRYHNGYFHVDSAVTNLRISGVFPLHETDRLLDAIVRTLPVKVSRRFSWWVDIRPS”, for which the “soluble on expression in E. coli” value is reported as “not soluble”.

As for “MGSDKIHHHHHHAIGFGLSYGTEIESIGLGLKYQYNITNPIRLEPSLNYFIENDNVSMLDINMNLHYLCPVGRSVKLYPLFGFTFSNWMFDLGDGFDIDVDGDHIHIDKDDDNHNECRVGVNIGGGADFALTSSWIMNFELRYQLVSDFDQAVFNLGFAYRF”, the “soluble on expression in E. coli” value was “not soluble”.

For the sequence “MRKAAALSLLVLVILSTTLAGCNFGKGSNEEDSKGTNLKLPCSIVSTISGEDVLYYEIEGDSLKKLDLDLKGHMEVYSEELGLAVYREFADKGTNLIITNGVKEHKISVEGNIEELIISPKGTKLLYRYNSGDKIGYKVLDLQNFKEFDFNENLAISGENVKFVNEDQLILYGVDLEKRQSGLYIYNIKDGSYTLEKQIVKAFIDYIDLVEDQVVLYTQSSIDGKKNCYIYNLDSKKESVISNEVGEIESLCKIGNVVYFIGTKGEGLRSLYSIDITNNKLDRLVYDFPKNISEKSKLIVVGDNIYFLGFNDSKEKNALYRYNLKDKSIKLIDSNKGQYIIIKMAGDPLEHHHHHH”, the “soluble on expression in E. coli” value is reported as “not soluble”.

With “MGSDKIHHHHHHMQITKRNVELRVDDSLMRVYVASPKPVGVYPGIVFYSDIYQLGSPIIRLANYLAGFGYVVAAPEIFHRLEPIGLVIEPDDLGRMRGNDNARRTAIAEYDADSRAVIDFLKAETTVNANKIGTVGFCIGGHLAFRAAFENEVKASACCYPTGIPSGKLGKGVADTIHRVKEIKGEMLLVLGTLDPHIPESDRQILIKAIEDAKVPHKVVLYEAEHTFMRDDGYRYDSAATTFAWAEIVEFLGRVFAD”, the “soluble on expression in E. coli” value is “not soluble”.

With “MKLKTNIRHLHGIIRVPGDKSISHRSIIFGSLAEGETKVYDILRGEDVLSTMQVFRDLGVEIEDKDGVITVQGVGMAGLKAPQNALNMGNSGTSIRLISGVLAGADFEVEMFGDDSLSKRPMDRVTLPLKKMGVSISGQTERDLPPLRLKGTKNLRPIHYELPIASAQVKSALMFAALQAKGESVIIEKEYTRNHTEDMLQQFGGHLSVDGKKITVQGPQKLTGQKVVVPGDISSAAFWLVAGLIAPNSRLVLQNVGINETRTGIIDVIRAMGGKLEITEIDPVAKSATLIVESSDLKGTEICGALIPRLIDELPIIALLATQAQGVTVIKDAEELKVKETDRIQVVADALNSMGADITPTADGMIIKGKSALHGARVNTFGDHRIGMMTAIAALLVADGEVELDRAEAINTSYPSFFDDLESLIHG”, the “soluble on expression in E. coli” value is on record as “soluble”.

For the sequence “CDKSANPKQPTQGMSVVTSFYPMYAMTKEVSGDLNDVRMIQSGAGIHSFEPSVNDVAAIYDADLFVYHSHTLEAWARDLDPNLKKSKVNVFEASKPLTLDRVKGLEDMEVTQGIDPATLYDPHTWTDPVLAGEEAVNIAKELGHLDPKHKDSYTKKAKAFKKEAEQLTEEYTQKFKKVRSKTFVTQHTAFSYLAKRFGLKQLGISGISPEQEPSPRQLKEIQDFVKEYNVKTIFAEDNVNPKIAHAIAKSTGAKVKTLSPLEAAPSGNKTYLENLRANLEVLYQQLK”, the “soluble on expression in E. coli” value is given as “soluble”.

As for “MLETKDLNLFLGNKHVLKNISLSIPVRGEIIGIMGPNGAGKSSLIKSLIGEFNATGTKLLYNKPIQQQLQHITYIPQKAHIDLDFPISVEQVILSGCYKEIGWFRRPNKSARDKLKQLLSDLELESLRHRQISELSGGQLQRVLVARALMSESEVYFLDEPFVGIDFSSEKLIMTKIENLKQQGKLILIIHHDLSKAKQYFDRIILLNQTLRYFGDSEEAMSVTRLNETFMSSTDCSDPSQRSNITC”, the “soluble on expression in E. coli” value is “not soluble”.

In the case of “MGSDKIHHHHHHMLPRQPRSRTSADCSGFPARYGGWLALLLSRLSRSAGKEPGCERGARPRTAMRGSHGSISCIATGCLLSSSAMIWTISDLHLSFARPKPMDIFGPGWKDHPERIAQAWRERVAATDWVLIAGDISWAMKLPDALLDLQWIDALPGTKVLIRGNHDYWCPRRVNSIRRHLPPSLRLIGADALDIGEAVVCGTRGWITPETPGFTETDLPIYQRELGLLERALAAGQALAVNKPLIVMIHFPPFVNRQPTEFSRRIAASGAAACIYGHLHRRYDWDNAVQGRVDGVYYQLTACDYLGFGPVAVRGLNGWSGG”, the “soluble on expression in E. coli” value is reported as “not soluble”.

With “MGSDKIHHHHHHMTQCPLVSISCLTYNHAPYLRQCLDGFVMQITSFPIEILIYDDASGDGTQNIIEEYQKKYPDIIKPIYQTENQYSKGVKVGFVYNYSRAKGEYIAFCEGDDYWTDPYKLQKQIDFLECYSDYVICSHRYRICLKEEKVMNDEIKPIGDLSDGMSFDLSFLIRGGWLFQPLSVVYRKSALDLDTYSKYAIYIDVALFYAILKNGKGYCMPDVMGVYRIHEKGVWSGLDLNHQRIFSLKAREAIYDVEKTDEAAMFILSQFSRPMGRFLVVKECSMFMRITKILISHFGLRFVLRMWFDRLFLNKKLCVNEFYQIKDFCKRKKNG”, the “soluble on expression in E. coli” value is on record as “not soluble”.

For the sequence “MSQSEEQNKDIPSSSNFGNPANNGVNVPDAPARRLFDNTSDESDVSLDNDDKTGAETDGSSSSRGCLKSERSRKDHASTSSTRTVRAPQQVSWSFGAKPATPHSQPPAGLKKVPAYSATSSSSQAGPSASTSTARKSSLVGGRGSASSSGHTSPSPSESPARNAGCSSSGESNPDRSLTTPPLAPALKHSAKDGHYRGQRSMSLGGPAHEMLMSQLGGRQGNTVDCSPGEGDKVCLLVDQTRFLVSQRLLTSKPDTMLGRMFSMRASCGDLGADLVSPNERDEFEVADGMTSSCFRAILDYYQSGTMRCPSSVSVSELREACDYLLVPFNAQTVKCQNLHALLHELSNEGAREQFSQFLEEIILPQLVASTEHGERECHLVVLLDDDVVDWDDEYPPQMGEETTHVVYSTHLYKFFKYAENRDCAKQVLKERGLKKIRLGMEGYPTHKEKIKKRFNKAEVIYNYVQRPFVHCSWEKEEARSRHVDFACPIVKSKSNPSLAAAASDPLPQPAPLQQQHRVAVFGEAAPLAAHNRVDDQHFVQPLNQLMQQQAQLPQNNAMLGVNVQQQQHNHPLHSPPVNFQRNDREEE”, the “soluble on expression in E. coli” value is “soluble”.

For “MNIMITKKAFDWYKRELGLKPGDAIRFFARYGGCSTVQKGFSLGMAKDELVDKPAAQTTVDGITFFIEESDQWYFDGRDLTVDLDEKSDEPVFLVH”, the “soluble on expression in E. coli” value is listed as “not soluble”.

For the sequence “MTIEFINCAGCKAKIAEEDVEKNKVVFFLNRMWHRDHIQCIFCKLQISDNRYFRSSIDPMKPSCYACHIQTNHPSCTGCSLPVIERGLVAFNRLFHIDCFRCAICNKTIPQRKGFYERDMMFYDDVCYMLHIKDVL”, the “soluble on expression in E. coli” value is given as “not soluble”.

Take “MSLKQYKAYLIDLDGTMYMGTDEIDGAKQFIDYLNVKGIPHLYVTNNSTKTPEQVTEKLREMHIDAKPEEVVTSALATADYISEQSPGASVYMLGGSGLNTALTEAGLVIKNDEHVDYVVIGLDEQVTYEKLAIATLGVRNGATFISTNPDVSIPKERGLLPGNGAITSVVSVSTGVSPQFIGKPEPIIMVKALEILGLDKSEVAMVGDLYDTDIMSGINVGMDTIHVQTGVSTLEDVQNKNVPPTYSFKDLNEAIAELEKEGHHHHHH”: the “soluble on expression in E. coli” value is given as “soluble”.

Take “MGSSHHHHHHSSGLVPRGSHMVESKNTELSQGTWLNKPKSVFQEAGKVTLETDEKTDFWRETFYGFTRDSGHFLGVETGSAFTAQVRVQGSYESLYDQAGIMVRIDDGHWLKAGIEISDGHAMLSSVLTNGKSDWSTAVYGGNARDFWLRVTVEKGVLRIQVSSDKKTWPLVRLAPFPTSDHYLVGPMACTPERGGLKVTFSEWSLTAPLGKALHDLS”: the “soluble on expression in E. coli” value was “soluble”.

For “QVKLQQSGGGLVKPGASLKLSCVTSGFTFRKFGMSWVRQTSDKCLEWVASISTGGYNTYYSDNVKGRFTISRENAKNTLYLQMSSLKSEDTALYYCTRGYSSTSYAMDYWGQGTTVTVSGIEGR”, the “soluble on expression in E. coli” value is “soluble”.

Turning to “MKIHSYIFSLLACLVIALPGYSQVDRNETLIRSALHGLEYEIKAGFSIGGTAPLPLPVEIRSIDGYNPTLAISIGGEVTKWFAVQNKLGVIVGLRLENKAMTTEATVKNYNMEILGQGGERISGVWTGGVKTKVHTSGLTIPLMATYKLSNRWNIKAGPYFSYLLSREFSGHVYEGYLREGDPVGPKVEFTDGKIATYDFSDDLRHFQWGLQIGAGWRAFKHLNIYADLTWGLNDIFRNDFQTITFAMYPIYLNIGFGYAF”, the “soluble on expression in E. coli” value is listed as “not soluble”.

For the sequence “VSGREPSSRIIRVSVKTPQDCHEFFLAENSNVRRFKKQISKYLHCNADRLVLIFTGKILRDQDILSQRGILDGSTVHVVVRSH”, the “soluble on expression in E. coli” value is reported as “soluble”.

Regarding “MSWQTYVDEHLMCDIDGQGEELAASAIVGHDGSVWAQSSSFPQFKPQEITGIMKDFEEPGHLAPTGLHLGGIKYMVIQGEAGAVIRGKKGSGGITIKKTGQALVFGIYEEPVTPGQCNMVVERLGDYLIDQGL”, the “soluble on expression in E. coli” value is recorded as “soluble”.

Take “SNAEELQALVDNIPAAIYHLDVSGQATIRFRPPAFLKTLVSEHAGTTRLNTLSMIHHDDRHMLSNAYSKLREAKHSLTLVYRIVTPEGKLHWIEDHMRSSFSDDGLFSGIDGILCEVT”: the “soluble on expression in E. coli” value is recorded as “soluble”.
